Target: the molecule itself
Assay: X-ray crystallography, homodimer in the asymmetric unit

B1: isopentenyl phosphate kinase (IPK) from Methanocaldococcus jannaschii (enzyme)
chain: MLTILKLGGSILSDKNVPYSIKWDNLERIAMEIKNALDYYKNQNKEIKLILVHGGGAFGHPVAKKYLKIEDGKKIFINMEKGFWEIQRAMRRFNNIIIDTLQSYDIPAVSIQPSSFVVFGDKLIFDTSAIKEMLKRNLVPVIHGDIVIDDKNGYRIISGDDIVPYLANELKADLILYATDVDGVLIDNKPIKRIDKNNIYKILNYLSGSNSIDVTGGMKYKIEMIRKNKCRGFVFNGNKANNIYKALLGEVEGTEIDFSE
notes: The crystal holds a homodimer, two molecules in the asymmetric unit; also called IPK-Mjannaschii; IPK-Mj
binding result: binds

Reference: US9051555 (SALK INSTITUTE FOR BIOLOGICAL STUDIES, dated 2015)
